{"source": "paper PMC9213077", "biological_target": "Fcγ receptors on THP-1 cells (human (endogenous in THP-1)) (UniProt P12314)", "sequence (P12314 16-374)": "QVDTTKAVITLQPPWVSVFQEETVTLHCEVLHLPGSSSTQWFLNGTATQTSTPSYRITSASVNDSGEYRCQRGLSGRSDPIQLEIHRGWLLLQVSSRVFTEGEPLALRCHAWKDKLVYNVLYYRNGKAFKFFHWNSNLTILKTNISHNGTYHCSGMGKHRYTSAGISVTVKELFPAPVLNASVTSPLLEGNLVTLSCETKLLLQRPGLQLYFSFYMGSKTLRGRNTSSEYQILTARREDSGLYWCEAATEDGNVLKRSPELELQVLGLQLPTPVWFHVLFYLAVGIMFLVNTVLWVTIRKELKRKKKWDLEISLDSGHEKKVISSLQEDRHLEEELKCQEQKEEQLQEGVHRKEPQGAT", "test": "retention of opsonized erythrocytes on adherent THP-1 cells", "data": [{"substance": "rabbit antihuman erythrocyte antibody (Rockland; 209-4139), intact IgG", "values": [{"measurement": "concentration at which erythrocyte retention occurred", "result": 0.6, "unit": "µg/mL"}]}, {"substance": "single-cleaved rabbit antihuman erythrocyte IgG generated by imlifidase (antibody)", "values": [{"measurement": "concentration at which erythrocyte retention occurred", "result": 5, "unit": "µg/mL"}]}]}
